Usually IC50 stands for the concentration that inhibits the measured activity by half. Read a low IC50 as greater potency. What is called EC50 is the concentration that produces a half-maximal response.

Starred links: 1 amine or outer side, 2 acyl side, 3 side chain; linkers in the order of their positions; H or OH if unused. Positions of bridges follow the written chain, without caps; N, C: chain ends. Non-standard residues stand in square brackets, D forms with d. Primed or numbered codes have the meaning given here. PyrS2″ = (S)-3-amino-1-((pent-4-en-1-yloxy)carbonyl)pyrrolidine-3-carboxylic acid (stapling residue), C=CCCCOC(=O)N1CC[C@@](N[*:1])(C(=O)[*:2])C1; B5(30) = 2-amino-2-(pent-4-en-1-yl)hept-6-enoic acid (2,2-bis(4-pentenyl)glycine, stitching residue), C=CCCCC(CCCC=C)(N[*:1])C(=O)[*:2]; B5(4) = 2,2-bis(4-pentenyl)glycine = 2-amino-2-(pent-4-en-1-yl)hept-6-enoic acid (stitching residue), C=CCCCC(CCCC=C)(N[*:1])C(=O)[*:2]; B5(5) = 2,2-bis(4-pentenyl)glycine, 2-amino-2-(pent-4-en-1-yl)hept-6-enoic acid (stitching residue), C=CCCCC(CCCC=C)(N[*:1])C(=O)[*:2]; TfeGA = (S)-2-amino-3-((carboxymethyl)(2,2,2-trifluoroethyl)amino)propanoic acid, O=C([C@H](CN(CC(=O)[*:3])CC(F)(F)F)N[*:1])[*:2]; PyrS2 = (S)-3-amino-1-((pent-4-en-1-yloxy)carbonyl)pyrrolidine-3-carboxylic acid, C=CCCCOC(=O)N1CC[C@@](N[*:1])(C(=O)[*:2])C1; B5(25) = 2-amino-2-(pent-4-en-1-yl)hept-6-enoic acid (stitching residue), C=CCCCC(CCCC=C)(N[*:1])C(=O)[*:2]; B5 = 2-amino-2-(pent-4-en-1-yl)hept-6-enoic acid, C=CCCCC(CCCC=C)(N[*:1])C(=O)[*:2]; Bta = N[C@@H](Cc1csc2ccccc12)C(=O)O; Lys(iPr) = CC(C)NCCCC[C@H](N)C(=O)O; αAllylPro = C=CC[C@@]1(C(=O)O)CCCN1; tBuAla = CC(C)(C)C[C@H](N)C(=O)O; 3Thi = N[C@@H](Cc1ccsc1)C(=O)O; hSer = N[C@@H](CCO)C(=O)O

IC50 and EC50 data for 23 molecules are collected here from patent US20240116985A1, “STAPLED PEPTIDES AND METHODS THEREOF” (priority 2020, published 2024).

For one assay, the target named is full-length beta-Catenin (Uniprot ID P35222) (Homo sapiens (Human)) (UniProt P35222). The assay is described as follows: fluorescence polarization competition against 5FAM-TCF4 10-53 on full-length beta-catenin.
Target sequence in this assay (P35222 whole entry): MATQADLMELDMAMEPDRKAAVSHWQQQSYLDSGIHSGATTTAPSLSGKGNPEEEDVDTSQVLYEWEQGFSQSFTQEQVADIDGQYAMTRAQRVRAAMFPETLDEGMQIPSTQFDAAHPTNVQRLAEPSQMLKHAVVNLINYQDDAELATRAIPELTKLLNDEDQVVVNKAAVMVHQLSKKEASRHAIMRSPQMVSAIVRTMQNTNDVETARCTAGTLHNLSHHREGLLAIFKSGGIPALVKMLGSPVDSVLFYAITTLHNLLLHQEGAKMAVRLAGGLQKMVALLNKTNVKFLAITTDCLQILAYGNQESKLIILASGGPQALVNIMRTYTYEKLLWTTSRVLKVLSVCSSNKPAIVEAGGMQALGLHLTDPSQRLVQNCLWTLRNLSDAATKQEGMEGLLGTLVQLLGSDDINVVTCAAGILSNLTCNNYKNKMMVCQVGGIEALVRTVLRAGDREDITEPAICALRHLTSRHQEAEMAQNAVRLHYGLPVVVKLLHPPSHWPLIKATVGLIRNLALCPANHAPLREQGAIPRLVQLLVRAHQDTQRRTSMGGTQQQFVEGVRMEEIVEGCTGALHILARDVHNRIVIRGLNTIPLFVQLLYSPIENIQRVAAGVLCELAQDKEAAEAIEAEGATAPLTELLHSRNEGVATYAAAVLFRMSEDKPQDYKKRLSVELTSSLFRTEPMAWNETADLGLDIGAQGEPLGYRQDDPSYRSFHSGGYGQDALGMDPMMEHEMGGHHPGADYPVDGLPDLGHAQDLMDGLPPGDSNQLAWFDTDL
As to Ac-[αAllylPro]N[tBuAla][B5(4)]DT[Lys(iPr)]AFW[PyrS2]F[Bta]Q-NH2 (staple 1-4, 4-11) [I-1600], the IC50 stood at 4290 nM.

Regarding Ac-[αAllylPro]N[tBuAla][B5(4)]DT[Lys(iPr)]ASL[PyrS2]F[Bta]Q-NH2 (staple 1-4, 4-11) [I-1597], the IC50 is 6990 nM. This IC50 lies about 1.6-fold higher than the previous one. Same read-out and setting: for Ac-[αAllylPro]N[tBuAla][B5(4)]DT[Lys(iPr)]AFF[PyrS2]F[Bta]Q-NH2 (staple 1-4, 4-11) [I-1599] the value was 1080 nM; for Ac-[αAllylPro]N[tBuAla][B5(4)]DT[Lys(iPr)]AFN[PyrS2]F[Bta]Q-NH2 (staple 1-4, 4-11) [I-1602], 362 nM. Still for that read-out and setting: for Ac-[αAllylPro]N[tBuAla][B5(4)]DT[Lys(iPr)]AFS[PyrS2]F[Bta]Q-NH2 (staple 1-4, 4-11) [I-1601] the value was 2020 nM.

The target is the same in a further assay. The assay can be described thus: fluorescence polarization competition; 10 nM full-length beta-catenin + 10 nM 5FAM-TCF4(10-53) probe.
Target sequence in this assay (P35222 whole entry): as above
For Ac-[αAllylPro]D[tBuAla][B5(25)]D[TfeGA]AAFF[PyrS2″][3Thi][Bta]S-NH2 (staple 1-4, 4-11; also: earlier-eluting HPLC staple isomer) [I-962], the EC50 stood at 407 nM. Still for that read-out and setting: for Ac-[αAllylPro]D[tBuAla][B5]D[TfeGA]AAF[hSer][PyrS2][3Thi][Bta]S-NH2 (staple 1-4, 4-11; also: later-eluting staple isomer composition) [I-959] the value was 881 nM; for Ac-[αAllylPro]D[tBuAla][B5]D[TfeGA]AAFS[PyrS2][3Thi][Bta]S-NH2 (staple 1-4, 4-11; also: earlier-eluting staple isomer composition) [I-954], 900 nM. Turning to Ac-[αAllylPro]D[tBuAla][B5]D[TfeGA]AAFN[PyrS2][3Thi][Bta]Y-NH2 (staple 1-4, 4-11; also: earlier-eluting staple isomer composition) [I-952], the EC50 came out at 1210 nM. On to Ac-[αAllylPro]D[tBuAla][B5(25)]D[TfeGA]AAFF[PyrS2″][3Thi][Bta]S-NH2 (staple 1-4, 4-11; not fully specified) [I-963], for which the EC50 was 402 nM. The same measure, in the same setting: for Ac-[αAllylPro]D[tBuAla][B5]D[TfeGA]AAFN[PyrS2][3Thi][Bta]Y-NH2 (staple 1-4, 4-11; also: later-eluting staple isomer composition) [I-953] the value was 1460 nM.

In the case of Ac-[αAllylPro]D[tBuAla][B5]D[TfeGA]AAFS[PyrS2][3Thi][Bta]S-NH2 (staple 1-4, 4-11; also: later-eluting staple isomer composition) [I-955], the EC50 came out at 1200 nM.

With Ac-[αAllylPro]D[tBuAla][B5]D[TfeGA]AAF[hSer][PyrS2][3Thi][Bta]S-NH2 (staple 1-4, 4-11; also: earlier-eluting staple isomer composition) [I-958], the EC50 was found to be 606 nM. Same read-out and setting: for Ac-[αAllylPro]D[tBuAla][B5]D[TfeGA]AAFT[PyrS2][3Thi][Bta]S-NH2 (staple 1-4, 4-11; also: earlier-eluting staple isomer composition) [I-956] the value was 1090 nM; for Ac-[αAllylPro]D[tBuAla][B5]D[TfeGA]AAFT[PyrS2][3Thi][Bta]S-NH2 (staple 1-4, 4-11; also: later-eluting staple isomer composition) [I-957], 1430 nM.

The next assay has the same target. The assay is described as follows: fluorescence polarization competition vs 5FAM-TCF4(10-53) on full-length beta-catenin.
On to Ac-[αAllylPro]D[tBuAla][B5(25)]D[TfeGA]AAFF[PyrS2″][3Thi][Bta]S-NH2 (staple 1-4, 4-11; also: earlier-eluting HPLC staple isomer) [I-962], for which the IC50 is 407 nM.

Ac-[αAllylPro]D[tBuAla][B5(30)]NTAAFR[PyrS2][3Thi][Bta]Q-NH2 (staple 1-4, 4-11; also: later-eluting HPLC isomer) [I-1883] returned an IC50 of 884 nM.

In the case of Ac-[αAllylPro]D[tBuAla][B5(5)]NTAAFN[PyrS2″][3Thi]WQ-NH2 (staple 1-4, 4-11; also: separately listed staple isomer composition) [I-1877], the IC50 is 1520 nM. On the same count and under the same terms, for Ac-[αAllylPro]D[tBuAla][B5]D[TfeGA]AAF[hSer][PyrS2][3Thi][Bta]S-NH2 (staple 1-4, 4-11; also: later-eluting staple isomer composition) [I-959] the value was 881 nM; for Ac-[αAllylPro]D[tBuAla][B5]D[TfeGA]AAFS[PyrS2][3Thi][Bta]S-NH2 (staple 1-4, 4-11; also: earlier-eluting staple isomer composition) [I-954], 900 nM; for Ac-[αAllylPro]D[tBuAla][B5(30)]NTAAFR[PyrS2][3Thi][Bta]Q-NH2 (staple 1-4, 4-11; also: earlier-eluting HPLC isomer) [I-1882], 397 nM. Still for that read-out and setting: for Ac-[αAllylPro]D[tBuAla][B5(30)]NTAAFN[PyrS2″][3Thi][Bta]V-NH2 (staple 1-4, 4-11; also: later-eluting HPLC isomer) [I-1879] the value was 567 nM; for Ac-[αAllylPro]D[tBuAla][B5]D[TfeGA]AAFN[PyrS2][3Thi][Bta]Y-NH2 (staple 1-4, 4-11; also: earlier-eluting staple isomer composition) [I-952], 1210 nM. Same read-out and setting: for Ac-[αAllylPro]D[tBuAla][B5(5)]NTAAFN[PyrS2″][3Thi]WQ-NH2 (staple 1-4, 4-11; also: separately listed staple isomer composition) [I-1876] the value was 1340 nM. As to Ac-[αAllylPro]D[tBuAla][B5(25)]D[TfeGA]AAFF[PyrS2″][3Thi][Bta]S-NH2 (staple 1-4, 4-11; not fully specified) [I-963], the IC50 is 402 nM. On the same count and under the same terms, for Ac-[αAllylPro]D[tBuAla][B5]D[TfeGA]AAFN[PyrS2][3Thi][Bta]Y-NH2 (staple 1-4, 4-11; also: later-eluting staple isomer composition) [I-953] the value was 1460 nM; for Ac-[αAllylPro]D[tBuAla][B5]D[TfeGA]AAFS[PyrS2][3Thi][Bta]S-NH2 (staple 1-4, 4-11; also: later-eluting staple isomer composition) [I-955], 1200 nM; for Ac-[αAllylPro]D[tBuAla][B5(30)]NTAAFN[PyrS2][3Thi][Bta]L-NH2 (staple 1-4, 4-11; also: earlier-eluting HPLC isomer) [I-1880], 868 nM.

In the case of Ac-[αAllylPro]D[tBuAla][B5(5)]NTAAFN[PyrS2″][3Thi][Bta]V-NH2 (staple 1-4, 4-11; also: separately listed staple isomer composition) [I-1878], the IC50 worked out at 458 nM.

Ac-[αAllylPro]D[tBuAla][B5(30)]NTAAFN[PyrS2][3Thi][Bta]L-NH2 (staple 1-4, 4-11; also: later-eluting HPLC isomer) [I-1881] gave an IC50 of 743 nM.

Ac-[αAllylPro]D[tBuAla][B5]D[TfeGA]AAF[hSer][PyrS2][3Thi][Bta]S-NH2 (staple 1-4, 4-11; also: earlier-eluting staple isomer composition) [I-958] gave an IC50 of 606 nM. On to Ac-[αAllylPro]D[tBuAla][B5]D[TfeGA]AAFT[PyrS2][3Thi][Bta]S-NH2 (staple 1-4, 4-11; also: earlier-eluting staple isomer composition) [I-956], for which the IC50 is 1090 nM.

Molecule Ac-[αAllylPro]D[tBuAla][B5]D[TfeGA]AAFT[PyrS2][3Thi][Bta]S-NH2 (staple 1-4, 4-11; also: later-eluting staple isomer composition) [I-957] showed an IC50 of 1430 nM.
